Laboratory results published in patent US20140056882A1.

Target: mouse G-CSF (mGCSF, R&D Systems Cat#414-CS) (mouse) (UniProt P09920)
Assay: cell-based or functional assay

UniProt P09920, sequence (P09920 31-208 limits assumed): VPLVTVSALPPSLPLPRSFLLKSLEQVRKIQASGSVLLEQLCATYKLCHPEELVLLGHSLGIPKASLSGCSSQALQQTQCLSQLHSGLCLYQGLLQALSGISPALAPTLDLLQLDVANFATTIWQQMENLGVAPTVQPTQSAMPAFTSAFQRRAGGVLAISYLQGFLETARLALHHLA

Row | Substance | IC50, inhibition of mG-CSF proliferation of hG-CSFR BaF3 cells (MTS reduction)
1 | R&D Systems antibody MAB414 (rat anti-mouse G-CSF monoclonal antibody, clone 67604) | 10 pM
2 | soluble hG-CSFR-Fc protein (from UniProt Q99062 25-332) (Fc fusion) | 22 pM
